Test results reported in the nanobody polyreactivity screen of Harvey et al. (2022).

Test: yeast display, Sf9 membrane polyspecificity reagent, FACS + sequencing; frameworks hold sequencing errors
How it was run: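 Galactose-induced (36–48 hours) yeast carrying a synthetic nanobody display library were exposed to 10% biotinylated, detergent-solubilized Sf9 membrane reagent at 4 °C for 1 hour. FACS followed streptavidin microbead enrichment, using low and high (top ~1%) gates for expression (anti-HA) and reagent binding (streptavidin). Colony PCR, MiSeq 2 × 250 sequencing and CDR-length filtering followed. Labels for polyreactivity reflect the gate of origin.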

QVQLVESGGGLVQAGGSLRLSCAASGITFGPYAMGWYRQAPGKERELVAAITWGGGSTYYADSVKGRFTISRDNAKTTVYLQMNSLKPEDTAVSYCNAEGSTTSRYLPYDYWGQGTQVTVSS
polyreactivity (PSR sort gate): low polyreactivity

QVQLVESGGGLVQAGGSLRLSCAASGITFGPYAMGWYRQAPGKERELVATISSSGGSTYYADSVKGRFTISRDNAKNTVYLQMNSLKPEDTAVYYCAAEYYVISSPSFYEYDYWGQGTQVTVSS
polyreactivity (PSR sort gate): low polyreactivity

QVQLVESGGGLVQAGGSLRLSCAASGITFGPYAMGWYRQATGKERELVAAINWSGGSTYYADSVKGRFTISRDNAKTTVYLQMNSLKPEDTAVYYCAAEPYKRLYQFYFWGQGTQVTVSS
polyreactivity (PSR sort gate): high polyreactivity

QVQLVESGGGLVQAGGSLRLSCAASGITFGQYAMGWYRQAPGKERELVAVITSGGDTYYADSVKGRFTISRDNAKNTVYLQINSLKPEDTAVYYCNADDDLTSIYRYDYWGQGTQVTVSS
polyreactivity (PSR sort gate): low polyreactivity

QVQLVESGGGLVQAGGSLRLSCAASGITFGRNAMGWYRQAPGKERELVAAISRGGSTNYADSVKGRFTISRDNAKNTVYLQMNSLKPEDTAVYYCAAQYKYRRYPKVAFEYWGQGTQVTVSS
polyreactivity (PSR sort gate): high polyreactivity

QVQLVESGGGLVQAGGSLRLSCAASGITFGRNAMGWYRQAPGKERELVAAISRGGSTNYADSVKGRFTISRDNAKNTVYLQMNSLKPEDTAVYYGNALSWPHGSWIPIHRRYGYWGQGTQVTVSS
polyreactivity (PSR sort gate): high polyreactivity

QVQLVESGGGLVQAGGSLRLSCAASGITFGRNTMGWYRQAPGKERELVAAIDSGGNTYADSVKGRFTISRDNAKNTVYLQMNSLKPEDTAVYYCAAVVYAYLYADYDYWGQGTQVTVSS
polyreactivity (PSR sort gate): low polyreactivity

QVQLVESGGGLVQAGGSLRLSCAASGITFGRNTMGWYRQAPGKERELVAAIDSGGNTYADSVKGRFTISRDNAKNTVYLQMNSLKPEDTAVYYCAVDGGEFSSYGYWGLGTQVTVSS
polyreactivity (PSR sort gate): low polyreactivity

QVQLVESGGGLVQAGGSLRLSCAASGITFGRNTMGWYRQAPGKERELVAAIDSGGNTYADSVKGRFTISRDNAKNTVYLQMNSLKPEDTAVYYCNARSYYGYGRYDYWGQGTQVTVSS
polyreactivity (PSR sort gate): low polyreactivity

QVQLVESGGGLVQAGGSLRLSCAASGITFGRNTMGWYRQAPGKERELVAAIDSGRNTYADSVKGRFTISRDNAKNPVYLQMNSLKPEYTAVYYCNADKSNFVRGYYWGQGTQVTVSS
polyreactivity (PSR sort gate): low polyreactivity

QVQLVESGGGLVQAGGSLRLSCAASGITFGRNTMGWYRQAPGKERELVASISYSGTTTYYADSVKGRFTISRDNAKNTVYLQMNSLKPEDTAVYYCNKRWRYYDMDYWGQGTQVTVSS
polyreactivity (PSR sort gate): low polyreactivity

QVQLVESGGGLVQAGGSLRLSCAASGITFGRNTMGWYRQAPGKESELVAAIDSGGNTYADSVKGRFTISRDNAKNTVYLQMNSLKPEDTAVYYCAADNSVGEYQRVDYDYWGQGTQVTVSS
polyreactivity (PSR sort gate): low polyreactivity

QVQLVESGGGLVQAGGSLRLSCAASGITFGSYAMGGYRQAPGKERELVAAITRRGDNTYYADSVKGRFTISRDNAKNTVYLQMNSLKPEDTAVYYCNAAKGGRYPDYDYWGQGTQVTVSS
polyreactivity (PSR sort gate): high polyreactivity

QVQLVESGGGLVQAGGSLRLSCAASGITFGSYAMGWYRQAPGKERELVAAISRSGGSTYYADSVKGRFTISRDNAKNTVYLQMNSLKPEDTAVYYCAVRYVYYREGDYWGQGTQVSVSS
polyreactivity (PSR sort gate): high polyreactivity

QVQLVESGGGLVQAGGSLRLSCAASGITFGSYAMGWYRQAPGKERELVAAISRSGGSTYYADSVKGRFTISRDNEKNTVYLQMNSLKPEDTAVYYCAVRYVYYREGDYWGQGTQVTVSS
polyreactivity (PSR sort gate): high polyreactivity

QVQLVESGGGLVQAGGSLRLSCAASGITFGSYAMGWYRQAPGKERELVAAITWRGGSTFYADSVKGRFTISRDNAKNTVYLQMNSLKPDDTAVYYCAATLTKYLPRYYWGQGTQVTVSS
polyreactivity (PSR sort gate): low polyreactivity

QVQLVESGGGLVQAGGSLRLSCAASGITFGWNAMGWYRQAPGKEWELVAAITEDGYSTYYADSVKGRFTISRDNEKNTVYLQMNSLKPEDTAVYYCAAEYYDVYTYVQYDSWGQGTQVTVSS
polyreactivity (PSR sort gate): high polyreactivity

QVQLVESGGGLVQAGGSLRLSCAASGITFGWYAMGWYRQAPGKERELVAAISTGSSTYYADSVKGRFTISRDNAKNTVYLQMNSLKPEDTAVYYCAAYYGISFDYWGQGSQVTVSS
polyreactivity (PSR sort gate): high polyreactivity

QVQLVESGGGLVQAGGSLRLSCAASGITFGYNAMGWYIQAPGKERELVASISYSGDSTYYADSVKGRFTISRDNAKNTVYLLMNSLKPEDTAVYYCNVRNRPGGEINDYDYWGQGTQVTVSS
polyreactivity (PSR sort gate): low polyreactivity

QVQLVESGGGLVQAGGSLRLSCAASGITFGYYAMGWYRQAPGKERELVAAISRTGSTTYYADSVKGRFTISRDNAKNTVYLQMNRLKPEDTAVYYCAARRWGTNGGGSPMYYWGQGTQVTVSS
polyreactivity (PSR sort gate): high polyreactivity

QVQLVESGGGLVQAGGSLRLSCAASGITFGYYAMGWYRQAPGKERENVAAITRRGGSTYYADSVKGRFTISRDNAKNTVYLQMNSLKPEDTAVYYCAADSYRYWFIEDNYWGQGTQVTVSS
polyreactivity (PSR sort gate): high polyreactivity

QVQLVESGGGLVQAGGSLRLSCAASGITFHPYAKGWYRQAPGNEREFVAVISFRGGRTYYADSVKGRFTISRDNAKNNVYLQMNSLKPEDTAVYYCAAQYVSRRYSRYNYWGQGTQVTVSS
polyreactivity (PSR sort gate): high polyreactivity

QVQLVESGGGLVQAGGSLRLSCAASGITFIGYAMGWYRQAPGKERELVASITSGANTNYADSVKGRFTISRDNAKNTVYLQMNSLKPEDTAVYYCAAPEHGTYANILGEPLDYWGQGTQVTVSS
polyreactivity (PSR sort gate): low polyreactivity

QVQLVESGGGLVQAGGSLRLSCAASGITFITYTMGWYRQEPGKERELVAGISSGGSTYYADSVKGRFTISRDNAKNTVYLQMNSLKPEDTAVYYCAAEFAGWGYYWFDYWGQGTQVTVSS
polyreactivity (PSR sort gate): high polyreactivity

QVQLVESGGGLVQAGGSLRLSCAASGITFITYVMGWYRQAPGKERELVAAISLRGGRTSYADSVKGRFTISRDNAKNTVYLQMNSLKPEDTAVYYCAARAYYTRYDYWGQGTQVTVSS
polyreactivity (PSR sort gate): high polyreactivity

QVQLVESGGGLVQAGGSLRLSCAASGITFIYNAMGWYRQAPGKERELVATINDGGSTNYADSVKGRFTISRDNAKNTVYLQMNSLKPEDTAVYYCNADGGPYGAVGKSDYWGQGTQVTVSS
polyreactivity (PSR sort gate): low polyreactivity

QVQLVESGGGLVQAGGSLRLSCAASGITFIYYDMGWYRQAPGKEREFVAAINYRGTSTYYADSVKGRFTISRDNAKNTVYLQMNSLKPEDTAVYYCAARLRQTGGDRLGYWGQGTQVTVSS
polyreactivity (PSR sort gate): high polyreactivity

QVQLVESGGGLVQAGGSLRLSCAASGITFKFNAMGWYRQAPGKERELVAAISVRGGRTYYADSVKGRFTISRDNAKNTVYLQMNSLKPEDTAVYYCAATDWFYSYYLGYGYGYWGQGTQVTVSS
polyreactivity (PSR sort gate): high polyreactivity

QVQLVESGGGLVQAGGSLRLSCAASGITFKPNAMGWYRQAPGKERELVAALDTGGSTNYADSVKGRFTISRDNEKNTVYLQMNSLKPEDTEVYYCAAPYQDRDLHVSYSTYEGGYWGQGTQVTVSS
polyreactivity (PSR sort gate): low polyreactivity

QVQLVESGGGLVQAGGSLRLSCAASGITFKYNAMGWYRQAPGKERELVAAISSGGNTYYADSVKGRFTISRDNAKNTVYLQMNSLKPEDTAVYYCAAPSYDTLWHDYWGQGTQVTVSS
polyreactivity (PSR sort gate): low polyreactivity

QVQLVESGGGLVQAGGSLRLSCAASGITFKYYAMGWYRQAPGKERELVAAISRGGGSTYYADSVKGRFTISRDNAKNTVYLQMNSLKPEDTAVYYCNAVFYSFIQSDYWGQGTQVTVSS
polyreactivity (PSR sort gate): high polyreactivity

QVQLVESGGGLVQAGGSLRLSCAASGITFKYYAMGWYRQAPGKESELVAAISRSGSSTYYADSVKGRFTISRDNAKNTVYLQINSLTPEDTAVYYCAADWKSKRTDKYDSWGQGTQVTVSS
polyreactivity (PSR sort gate): high polyreactivity
